This series deals with T1, TRC-1 (p21 SNF-1/JunB heteromultimer), SLB-I nuclear extract (Homo sapiens) (UniProt Q9NR55+P17275).
T1 sequence 1: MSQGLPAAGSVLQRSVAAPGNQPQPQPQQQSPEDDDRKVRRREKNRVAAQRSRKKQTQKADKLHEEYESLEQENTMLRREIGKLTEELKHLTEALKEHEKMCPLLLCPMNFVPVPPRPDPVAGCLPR
T1 sequence 2: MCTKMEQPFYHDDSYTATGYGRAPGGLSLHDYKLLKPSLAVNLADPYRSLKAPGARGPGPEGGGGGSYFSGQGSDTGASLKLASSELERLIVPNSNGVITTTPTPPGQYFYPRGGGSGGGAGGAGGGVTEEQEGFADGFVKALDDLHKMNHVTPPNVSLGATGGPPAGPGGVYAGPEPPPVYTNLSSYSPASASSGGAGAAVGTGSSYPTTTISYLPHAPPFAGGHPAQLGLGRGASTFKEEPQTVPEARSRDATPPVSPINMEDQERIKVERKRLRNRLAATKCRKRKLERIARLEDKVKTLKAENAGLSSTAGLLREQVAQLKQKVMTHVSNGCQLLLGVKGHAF
As to the kind of experiment: competition. Conditions: EMSA, site2 probe.

Substance HTLV-1 LTR 21-bp repeat site2 (s2) came in with a binding signal (% competition at 12.5-fold excess) (on ice) of 55.

Substance HTLV-1 LTR 21-bp repeat site3 (s3) showed a binding signal (fold excess for 55% competition) (nearly 50-fold) of 50.

Turning to HTLV-1 LTR 21-bp repeat site1 (s1), the binding signal (fold excess for 55% competition) is 100.

For the origin of these results see patent publication US5616475.
